Peptide text beside a SMILES is read from it. * marks the point of attachment. Dansyl = CN(C)c1cccc2c(S(=O)(=O)*)cccc12
Key:
[1] = Drug potency, peptide loading and size of coacervated particles; type: physicochemical; settings: formulation 1 particles (coacervation), blend; for Insulin (insulin potency): coated with the named peptide; for Peptide (level of peptide coated onto the particles): measured by fluorescence
[2] = molecular target: BSA (Bos taurus, UniProt P02769); experiment: Phage ELISA on BSA (background control protein); type: binding
Chain of BSA (P02769 25-607): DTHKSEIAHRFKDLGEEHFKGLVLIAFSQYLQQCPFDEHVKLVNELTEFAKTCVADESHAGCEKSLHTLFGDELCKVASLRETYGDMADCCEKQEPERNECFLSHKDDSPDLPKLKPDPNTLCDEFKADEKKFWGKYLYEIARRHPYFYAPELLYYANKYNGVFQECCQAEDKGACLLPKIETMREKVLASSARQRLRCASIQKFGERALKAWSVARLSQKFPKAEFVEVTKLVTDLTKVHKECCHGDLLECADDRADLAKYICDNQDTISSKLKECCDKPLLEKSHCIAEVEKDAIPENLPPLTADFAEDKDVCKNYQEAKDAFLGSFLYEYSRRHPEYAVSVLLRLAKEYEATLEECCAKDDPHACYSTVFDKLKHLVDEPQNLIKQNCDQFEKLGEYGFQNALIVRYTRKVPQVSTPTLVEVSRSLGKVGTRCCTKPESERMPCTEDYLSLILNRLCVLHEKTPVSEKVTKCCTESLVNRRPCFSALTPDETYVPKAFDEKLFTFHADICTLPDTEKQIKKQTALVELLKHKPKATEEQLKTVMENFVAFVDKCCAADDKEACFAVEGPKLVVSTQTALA
Protocol: 96 well plates were coated overnight with GIT receptor, BSA and, optionally, IDE (insulin degrading enzyme, an irrelevant His-fusion protein) or hTF. The plates were blocked for one hour with 0.5% BSA-PBS. After clarification, the amplified phage were diluted 1:100 in 1% BSA plus 0.05% Tween 20 in PBS and added to the plates. Following incubation of the plates on a rotator for 1 to 2 hours, the plates were washed 5 times with 1% BSA plus 0.05% Tween 20 in PBS. Dilute anti-M13-HRP conjugate (anti-M13 antibody linked to horse radish peroxidase (HRP)) was added to all the wells and the plate was incubated for one hour on a rotator. After the plates were washed 5 times, as described above, TMB substrate was added to the wells. The plates were read at 650 nm absorbance.

[3] = for presence in the systemic circulation (in words): text summary of HPT1 and hPEPT1 pools; for transport from the GIT closed loop into the portal circulation (in words): text summary of hSI, D2H, HPT1, hPEPT1 pools; for presence in the intestine samples or fractions (in words): text summary of the four pools
Protocol: In particular, phages selected in vitro to each receptor or binding site located in the GIT were amplified in E. coli, PEG-precipitated, resuspended in TBS and the titer of each phage sample was determined by plaquing in E. coli as described above. […] Using the in situ loop model described above, 0.5 ml of preselected phage library solution was injected into the tied-off portion of the duodenum/jejunum. Blood was collected into heparinized tubes from the portal vein at 0, 15, 30, 45 and 60 minutes. A blood sample was taken from the systemic circulation at the end of the experiment. Similarly, the portion of the duodenum/jejunum used for phage injection was taken at the end of the experiment.
Thirty microliters of the collected portal blood (neat and 10^−2, 10^−4, 10^−6 dilutions) was added to 30 μl E. coli K91Kan cells (overnight culture) and incubated at 37° C. for 10 min. Subsequently, 3 ml of top agarose was added and the samples were plated for plaques. One hundred microliters of the collected portal blood was added to 100 μl of E. coli K91Kan. Five milliliters of LB medium was then added and the samples were incubated at 37° C. overnight in a rotating microbial incubator. The E. coli was removed by centrifugation and the amplified phage supernatant samples were either titered directly or were PEG-precipitated, resuspended in TBS and titered. Following titration of the amplified phage, samples containing phage from each set of animals were combined, adjusting the titer of each sample to the same titer, and were plated for plaques on LB agar plates (22 cm^2 square plates). Either 12,000 or 24,000 phage were plated for plaques.
Thirty microliters of the collected systemic blood (neat and 10^−2, 10^−4, 10^−6 dilutions) was added to E. coli K91Kan cells, incubated at 37° C. for 10 min. Three ml of top agarose was then added and the samples were plated for plaques. One hundred microliters of the collected systemic blood was added to 100 μl of E. coli K91Kan, incubated at 37° C. for 10 min. Five milliliters of LB medium was then added and the samples were incubated at 37° C. overnight in a rotating microbial incubator. The E. coli was removed by centrifugation and the amplified phage supernatant samples were either titered directly or were PEG-precipitated, resuspended in TBS and titered. Following titration of the amplified phage, samples containing phage from each set of animals were combined, adjusting the titer of each sample to the same titer, and were plated for plaques on LB agar plates (22 cm^2 square plates). Either 12,000 or 24,000 phage were plated for plaques. The intestinal tissue portion used in each closed loop was excised. […] Alternatively, the tissue (in PBS supplemented with protease inhibitors) was homogenized in an Ultra Thorex homogenizer, washed 3 times in PBS containing protease inhibitors and resuspended in PBS containing protease inhibitors (Int-G samples). In each case, serial dilutions (neat and 10^−2, 10^−4, 10^−6 dilutions) of the tissue homogenate was titered in E. coli.
The phage amplified from the portal blood, systemic blood and intestinal tissue was plated for plaques. […] The filters were air-dried, and the DNA was cross-linked to the filter (UV crosslinking: 2 min, high setting). The filters were incubated in pre-hybridization buffer (6×SSC, 5×Denhardt's solution, 0.1% SDS, 20 μg/ml yeast tRNA) at 40° C.-45° C. for at least 60 min.
Synthetic oligonucleotides, (22-mers), complimentary to regions coding for the receptor or binding sites used to create the preselected phage library, were synthesized (see Table 14 below).
The oligonucleotides (5 pmol) were 5′ end labelled with ^32P-ATP and T4 polynucleotide kinase and approximately 2.5 pmol of labelled oligonucleotide was used in hybridization studies. […] The filters were air-dried and exposed for autoradiography for 15 hours, 24 hours or 72 hours.
Hybridization data for pools from each receptor group of rats was compiled.

[4] = system: fixed Caco-2 cells; experiment: Effect of thrombin cleavage on binding of GST-peptide fusions to fixed Caco-2 cells
Protocol: Binding of intact and thrombin-cleaved GST-peptide fusions to fixed Caco-2 cells was compared.
Thirty micrograms of each GST-peptide was treated with bovine thrombin (1μ/ml; 0.4 NIH units; Sigma CN.T9681) for 18 h at room temperature in 20 mM Tris-HCl pH8.0, 150 mM NaCl, 2.5 mM CaCl2. Controls were similarly treated without addition of thrombin. Ten micrograms of each GST-peptide fusion was removed for PAGE analysis, and 10 μg of fusions were added in duplicate to the fixed Caco-2 cells before 5-fold serial dilutions (1% BPT diluent). The fusions were allowed to bind for 1 h at room temperature. Following 6 washes with 1% BPT, binding was assayed by ELISA.

[5] = system: fixed Caco-2 or C2BBe1 cells; experiment: ELISA of GST fusion proteins on fixed Caco-2 or C2BBe1 cells; type: binding
Protocol: Fixed Caco-2, C2BBe1, and A431 cell plates were prepared by growing cells on tissue culture treated microtiter plates. When cells were confluent, plates were fixed with 10% formaldehyde, washed twice with PBS and stored with 0.5% BSA-PBS at −20° C. […] The standard ELISA procedure was followed at this point.
The standard ELISA procedure was modified as follows. GST proteins were diluted to an appropriate concentration in PBS containing 1% BSA and 0.05% Tween20 (1% BPT), titered and incubated one hour at room temperature. Following five washes an anti-GST monoclonal antibody was added (Sigma, St. Louis Clone GST-2 diluted 1:10,000 in 1% BPT) and incubated one hour. After five more washes goat anti-mouse IgG2b-HRP was added (Southern Biotechnology Associates Inc., Birmingham, Ala., diluted 1:4000 in 1% BPT) and incubated one hour. After five washes plates were developed with TMB peroxidase substrate (Kirkegard and Perry, Gaithersburg, Md.). All data is presented with background binding subtracted.

[6] = system: P100 membrane fractions derived from Caco-2 cells; experiment: Dansylated peptide ELISA on P100: PAX2 and HAX42 peptides relative binding; settings: PAX2 peptides, ratio to ZElan021 (HAX42 = 1.00); for Binding value at 20 μg/ml: first 20 μg/ml column
[7] = system: P100 membrane fractions derived from Caco-2 cells; experiment: as above; settings: ratio to ZElan021 (HAX42 = 1.00)

| Molecule | Insulin (insulin potency) [1] [mg/g] | Peptide (level of peptide coated onto the particles) [1] [µL/mg] | transport from the GIT closed loop into the portal circulation (in words) [3] | Binding value at 50 μg/ml (Southern Ab) [6] | Binding value at 20 μg/ml [6] | Binding value at 50 μg/ml ([6]; first 50 μg/ml column) | Binding value at 50 μg/ml ([6]; second 50 μg/ml column) | Binding value at 50 μg/ml (Jackson Ab) [7] | also measured |
| --- | --- | --- | --- | --- | --- | --- | --- | --- | --- |
| SARDSGPAEDGSRAVRLNGVENANTRKSSRSNPRGRRHP [Peptide P31] | 67.0 | 1.22 | found in the portal circulation |  |  |  |  |  | BSA ([2]; Table 4): 0.075 OD; presence in the systemic circulation (in words) [3]: found in the systemic circulation; presence in the intestine samples or fractions (in words) [3]: preferential binding |
| gst-ENANTRKSSRSNPRGRRHP [GST-P31.103] |  |  |  |  |  |  |  |  | effect of thrombin cleavage on detection of binding to fixed Caco-2 cells ([4]; Caco-2): significantly reduced; binding of truncated GST fusion compared with full-length, fixed Caco-2 cells ([5]; Caco-2): bound almost as well as full-length P31 |
| SQGSKQCMQYRTGRLTVGSEYGCGMNPARHATPAYPARLLPRYR [DCX11] |  |  | preferably transported |  |  |  |  |  | BSA ([2]; Table 3): 0.071 OD; presence in the intestine samples or fractions (in words) [3]: found in the intestinal samples fractions |
| SDHALGTNLRSDNAKEPGDYNCCGNGNSTGRKVFNRRRPSAIPT [HAX42] | 55.9 | 2.93 | found in the portal and systemic circulation |  |  |  |  |  | BSA ([2]; Table 5): 0.071 OD; presence in the systemic circulation (in words) [3]: found in the portal and systemic circulation |
| RYKHDIGCDAGVDKKSSSVRGGCGAHSSPPRAGRGPRGTMVSRL [DCX8] | 59.1 | 1.87 |  |  |  |  |  |  | BSA ([2]; Table 3): 0.063 OD |
| RVGQCTDSDVRRPWARSCAHQGCGAGTRNSHGCITRPLRQASAH [SNi10] | 59.5 | 1.75 |  |  |  |  |  |  | BSA ([2]; Table 1, phage panned on hSI): 0.051 OD |
| gst-RVGQCTDSDVRRPWARSCAHQGCGAGTRNSHGCITRPLRQASAH [GST-SNi10] |  |  |  |  |  |  |  |  | effect of thrombin cleavage on detection of binding to fixed Caco-2 cells ([4]; thrombin 18 h at room temperature): significantly reduced; binding to fixed Caco-2 or C2BBe1 cells relative to GST control ([5]; anti-GST ELISA): bound |
| CC(C)C[C@H](NC(=O)[C@H](CCCNC(=N)N)NC(=O)[C@H](CCCNC(=N)N)NC(=O)[C@H](CC(N)=O)NC(=O)[C@H](Cc1c[nH]cn1)NC(=O)[C@H](CO)NC(=O)[C@H](C)NC(=O)[C@@H](N)CCCCNS(=O)(=O)c1cccc2c(N(C)C)cccc12)C(=O)N[C@@H](CCCNC(=N)N)C(=O)N[C@H](C(=O)N[C@@H](CCCNC(=N)N)C(N)=O)[C@@H](C)O [ZElan073] (H-K(Dansyl)ASHNRRLRTR-NH2) |  |  |  | 0.49 | 0.07 | −0.11 | 0.49 | 0.66 |  |
| CC(C)C[C@H](NC(=O)[C@H](C)NC(=O)[C@H](CCCNC(=N)N)NC(=O)[C@H](CC(N)=O)NC(=O)[C@H](Cc1c[nH]cn1)NC(=O)[C@H](CO)NC(=O)[C@H](CO)NC(=O)[C@@H](N)CCCCNS(=O)(=O)c1cccc2c(N(C)C)cccc12)C(=O)N[C@@H](CCCNC(=N)N)C(=O)N[C@H](C(=O)N[C@@H](CCCNC(=N)N)C(N)=O)[C@@H](C)O [ZElan078] (H-K(Dansyl)SSHNRALRTR-NH2) |  |  |  | 0.47 | 0.11 | 0.87 | 0.69 | 0.68 |  |
| C[C@H](NC(=O)[C@H](CCCNC(=N)N)NC(=O)[C@H](CCCNC(=N)N)NC(=O)[C@H](CC(N)=O)NC(=O)[C@H](Cc1c[nH]cn1)NC(=O)[C@H](CO)NC(=O)[C@H](CO)NC(=O)[C@@H](N)CCCCNS(=O)(=O)c1cccc2c(N(C)C)cccc12)C(=O)N[C@@H](CCCNC(=N)N)C(=O)N[C@H](C(=O)N[C@@H](CCCNC(=N)N)C(N)=O)[C@@H](C)O [ZElan079] (H-K(Dansyl)SSHNRRARTR-NH2) |  |  |  | 0.53 | 0.31 | 0.97 | 0.68 | 0.83 |  |

From patent US7135457B1, “Random peptides that bind to gastro-intestinal tract (GIT) transport receptors and related methods” (Cytogen Corporation, priority 1997, dated 2006)
